The text below walks through data of patent US20200010563A1 (PROTHENA BIOSCIENCES, published 2020).

Substitutions are numbered along the chain they refer to.

The target in experiment [1] is T1, human MCAM domain 3 (amino acids 244-321) hFc construct (human, UniProt P43121 244-321).
T1 construct: One of the 'various MCAMhFc domains' immobilised on anti-human IgG Fc biosensors; also called MCAMhFc domain 3; not shown: human IgG Fc (hFc)
T1 sequence: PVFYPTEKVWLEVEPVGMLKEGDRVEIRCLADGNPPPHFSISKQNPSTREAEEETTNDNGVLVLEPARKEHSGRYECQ
Description: ForteBio BLI, MCAMhFc domains on anti-human IgG Fc sensors, antibody 5 ug/ml. The text has this:
The following protocol was used: ForteBio anti-human IgG Fc biosensors were used to immobilize various MCAMhFc domains including full length MCAMhFc protein on to biosensor surface. […] After loading these samples into a black 96 well plate, the Octet Red was programmed as follows: 60 seconds for baseline #1; 180 seconds for loading various domains; 60 seconds for baseline #2; 180 seconds for association of antibody to domain; and 240 seconds for dissociation of antibody from domain.
1. MCAMhFc final concentration @ 5 ug/ml [0342] […] 3. ForteBio anti-human IgG Fc Capture (AHC) biosensors for kinetics experiments, cat#18-5060 [0344] 4. Block 96 well plate from Greiner Bio-one, cat#655209 [0345] 5. ForteBio Octet Red machine [0346] 6. Fresh tissue culture medium, DMEM with 20% FCS, was used as buffer for dilution The results from these analyses are as follows.

Experiment [2] deals with T2, human MCAM V340A mutant (V5/HIS6) on BHK cells (human, UniProt P43121 24-646).
T2 sequence: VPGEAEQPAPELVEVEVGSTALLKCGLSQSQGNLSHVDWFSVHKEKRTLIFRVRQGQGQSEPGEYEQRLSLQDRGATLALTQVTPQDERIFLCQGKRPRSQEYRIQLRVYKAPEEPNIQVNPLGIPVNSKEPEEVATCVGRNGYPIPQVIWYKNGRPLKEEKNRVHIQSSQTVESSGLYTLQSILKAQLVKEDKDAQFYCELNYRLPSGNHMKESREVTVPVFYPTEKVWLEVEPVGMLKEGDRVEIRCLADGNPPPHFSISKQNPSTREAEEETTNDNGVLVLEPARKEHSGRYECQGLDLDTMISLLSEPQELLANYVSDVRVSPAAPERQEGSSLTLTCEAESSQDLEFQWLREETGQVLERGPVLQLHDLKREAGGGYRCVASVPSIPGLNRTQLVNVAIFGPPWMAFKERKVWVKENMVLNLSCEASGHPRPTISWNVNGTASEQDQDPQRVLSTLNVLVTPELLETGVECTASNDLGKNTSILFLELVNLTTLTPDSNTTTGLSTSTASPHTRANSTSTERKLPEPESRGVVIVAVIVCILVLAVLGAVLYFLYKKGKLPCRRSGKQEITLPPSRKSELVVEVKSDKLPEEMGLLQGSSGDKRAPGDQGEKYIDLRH
Description: shotgun mutagenesis, immunofluorescence on BHK cells. As for the experimental part: (§1) The mutation library was assayed for surface expression (mouse sera binding) and monoclonal antibody binding, in triplicate. Each raw data point was background-subtracted and normalized to the wild type MCAM reactivity values. The mean monoclonal antibody binding value for each clone is plotted as a function of its mean surface expression value (FIG. 1, gray diamonds). Thresholds of <30% monoclonal antibody reactivity and >50% mouse sera binding were applied to identify clones (FIG. 1, black diamonds) that were negative for monoclonal antibody binding but positive for surface expression.
(§2) Residues involved in antibody binding were identified as those that were negative for monoclonal antibody binding (<30% WT) but positive for surface expression (>50% WT) (Table 4). The mean reactivity (and standard deviation) were determined for each critical residue.

Experiment [3] deals with T3, human MCAM C272A mutant (V5/HIS6) on BHK cells (human, UniProt P43121 24-646).
T3 sequence: T2 sequence with C249A, A317V
Briefly: shotgun mutagenesis library, immunofluorescence on BHK cells, triplicate; standard deviation in brackets. As for the experimental part:
as §1, §2

Experiment [4] addresses T4, human MCAM Y318A mutant (V5/HIS6) on BHK cells (human, UniProt P43121 24-646).
T4 sequence: T2 sequence with Y295A, A317V
The experiment is described as above. As to the method:
as §1, §2

The target in experiment [5] is T5, human MCAM C320A mutant (V5/HIS6) on BHK cells (human, UniProt P43121 24-646).
T5 sequence: T2 sequence with C297A, A317V
Described as above. As for the experimental part:
as §1, §2

For experiment [6], the target named is T2, human MCAM V340A mutant (V5/HIS6) on …. The description is as above. As for the experimental part: as §1, §2
The target of experiment [7] is T6, human MCAM W377A mutant (V5/HIS6) on BHK cells (human, UniProt P43121 24-646).
T6 sequence: T2 sequence with A317V, W354A
The experiment is described as above. As for the experimental part:
as §1, §2

B1: mouse anti-human MCAM monoclonal antibody clone 1415.1.1 (antibody, V domains shown)
VH: QVQLQQPGAELVQPGAPVKLSCKASGYIFTSYWMNWVKQRPGRGLEWIGRIDPSDSKIHYNQKFKDKATLTVDRSSSTAYIQLGSLTSEDSAVYYCAKEGGLRRGDYAMDYWGQGTSVTVSS
VL: DIVMTQSPATLSVTPGDRVSLSCRASQSISDYLHWYQQKSHESPRLLIKYASQSISGIPSRFSGSGSGSDFTLSINSVEPEDVGVYYCQNGHNFPRTFGGGTKLEIK
notes: Mouse hybridoma monoclonal
As to B1, in experiment [1], the binding result is given as “binds”.

B2: mouse anti-human MCAM monoclonal antibody clone 1414.1.2 (antibody, V domains shown)
VH: EIQLQQTGPELVKPGASVKISCKASGYSFTDYIMLWVKQSHGKSLEWIGNINPYSGSSGYNLKFKGKATLTVDKSSSTAYMQLNSLTSEDSAVYYCARGKDFAMDYWGQGTSVTVSS
VL: DIVMSQSPSSLAVSAGEKVTMSCKSSQSLLNSSTRKNFLAWYQQKPGQSPKLLIYWASTRESGVPDRFTGSGSGTDFTLTISSVQAEDLAVYYCKQSYNRYTFGGGTKLEIK
notes: Mouse hybridoma monoclonal
In the case of B2, the binding result in experiment [1] is on record as “binds”.

B3: mouse anti-human MCAM monoclonal antibody clone 1749.1.3 (antibody, V domains shown)
VH: DVKLVESGGDLVKPGGSLKLSCAASGFTFSSYIMSWVRQTPEKRLEWVATISSGGSSTYYPDSVKGRFTISRDNAKNTLYLQMSSLKSEDTAMYYCTRDDDYDVKVFAYWGQGTLVTVSA
VL: B2 VL with S22N, Q27R, S33R, T34I, F38Y, R100L, Y101L, G105A, I111L
notes: Mouse hybridoma monoclonal; also called m1749
For B3, the binding result in experiment [2] is “no binding (tested: <30% WT; 0.5 µg/mL antibody)”. Besides, the “mean reactivity (% of wild type MCAM)” value in experiment [3] is 7.6 % of WT; in experiment [4], 7.1 % of WT; in experiment [5], 9.3 % of WT; in experiment [6], 8.7 % of WT; in experiment [7], 13.7 % of WT.

B4: mouse anti-human MCAM monoclonal antibody clone 1174.1.3 (antibody, V domains shown)
VH: QIQLVQSGPELKKPGETVKISCKASGYTFTNYGMNWVKQAPGKGLKWMGWINTYTGEPTYADDFKGRFALSLETSASTAYLQINNLKNEDMATYFCARYRYNKYERAMDYWGQGTSVTVSS
VL: DIVLTQSPASLAVSLGQRATISCRASKSVSTSGYSYMYWYQQKPGQPPKLLIYLASNLESGVPARFSGSGSGTDFTLNIHPVEEEDAATYYCQHSRELPFTFGSGTKLEIK
notes: Mouse hybridoma monoclonal
As to B4, in experiment [1], the binding result is listed as “binds”.
